According to patent US20020150536A1 (published 2002):
Each block holds one binder with its values, some of them ahead of it.

What was measured:
αvβ3 integrin [1] = molecular target: T1, αvβ3 integrin (human, UniProt P06756 31-1048; P05106 27-788); assay: competition ELISA, displacement of biotinylated fibrinogen (6 nM) from immobilized αvβ3 (FIG. 4B)
T1 construct: Native detergent-extracted heterodimer, adsorbed to microtiter wells; also called integrin αvβ3; purified human αvβ3
Protocol: (§1) Briefly, proteins were dialyzed into 0.1 M NaHCO₃, 0.1 M NaCl. N-hydroxysuccinimido-LC-biotin (Pierce) was dissolved at 1 mg/mL in DMSO and added to the protein at a ratio of 0.1 mg biotin per 1 mg protein. The reaction was allowed to rotate at room temperature for 2 hours. Biotinylated proteins were dialyzed into phosphate-buffered saline and their concentrations determined by absorbance at 280 nm. […] Absorbance was read at 405 nm.

αIIbβ3 = molecular target: T2, αIIbβ3 (UniProt P08514 32-1039; P05106 27-788); assay: competition ELISA, displacement of biotinylated fibrinogen (6 nM) from immobilized αIIbβ3 (FIG. 4C)
T2 construct: Bought purified protein, adsorbed to microtiter wells; also called integrin αIIbβ3; GPIIbIIIa
Protocol: An estimate of the maximum absorbance value was determined for each ligand/integrin pair in the absence of competitor. The baseline absorbance value was determined by adding 5 mM EDTA to the incubation buffer.
as §1

αvβ3 integrin [2] = molecular target: T1, αvβ3 integrin; assay: competition ELISA, displacement of biotinylated vitronectin (10 nM) from immobilized αvβ3 (FIG. 4A)
Protocol: as §1

T1 sequence (P06756 31-1048, form in doubt, chain 1 of 2): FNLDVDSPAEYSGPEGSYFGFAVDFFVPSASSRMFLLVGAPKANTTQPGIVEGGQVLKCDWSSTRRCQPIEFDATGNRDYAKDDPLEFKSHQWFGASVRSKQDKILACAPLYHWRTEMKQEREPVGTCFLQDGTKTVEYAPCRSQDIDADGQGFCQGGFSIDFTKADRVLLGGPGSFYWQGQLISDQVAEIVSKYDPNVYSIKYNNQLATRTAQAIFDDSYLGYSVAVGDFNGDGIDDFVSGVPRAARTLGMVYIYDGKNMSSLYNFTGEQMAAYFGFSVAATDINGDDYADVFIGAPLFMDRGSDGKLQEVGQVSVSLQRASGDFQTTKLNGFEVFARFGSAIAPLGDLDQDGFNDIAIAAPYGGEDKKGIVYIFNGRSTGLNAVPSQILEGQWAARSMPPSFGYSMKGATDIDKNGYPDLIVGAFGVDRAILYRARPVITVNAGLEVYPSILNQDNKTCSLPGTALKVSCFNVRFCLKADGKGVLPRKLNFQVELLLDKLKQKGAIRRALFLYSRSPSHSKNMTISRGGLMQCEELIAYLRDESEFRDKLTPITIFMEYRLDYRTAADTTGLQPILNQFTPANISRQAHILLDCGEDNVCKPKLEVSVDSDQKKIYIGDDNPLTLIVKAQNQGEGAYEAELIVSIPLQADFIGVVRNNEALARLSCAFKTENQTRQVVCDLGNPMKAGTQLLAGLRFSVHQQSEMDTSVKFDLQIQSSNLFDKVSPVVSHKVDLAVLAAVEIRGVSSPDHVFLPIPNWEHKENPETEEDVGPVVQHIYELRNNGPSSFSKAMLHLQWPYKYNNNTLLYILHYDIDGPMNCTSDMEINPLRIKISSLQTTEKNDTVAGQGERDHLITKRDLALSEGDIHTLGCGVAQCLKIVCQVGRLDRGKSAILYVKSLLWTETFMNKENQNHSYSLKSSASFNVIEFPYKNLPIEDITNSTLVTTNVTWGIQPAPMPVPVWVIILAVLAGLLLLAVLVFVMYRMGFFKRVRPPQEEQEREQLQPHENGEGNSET
T1 sequence (P05106 27-788, form in doubt, chain 2 of 2): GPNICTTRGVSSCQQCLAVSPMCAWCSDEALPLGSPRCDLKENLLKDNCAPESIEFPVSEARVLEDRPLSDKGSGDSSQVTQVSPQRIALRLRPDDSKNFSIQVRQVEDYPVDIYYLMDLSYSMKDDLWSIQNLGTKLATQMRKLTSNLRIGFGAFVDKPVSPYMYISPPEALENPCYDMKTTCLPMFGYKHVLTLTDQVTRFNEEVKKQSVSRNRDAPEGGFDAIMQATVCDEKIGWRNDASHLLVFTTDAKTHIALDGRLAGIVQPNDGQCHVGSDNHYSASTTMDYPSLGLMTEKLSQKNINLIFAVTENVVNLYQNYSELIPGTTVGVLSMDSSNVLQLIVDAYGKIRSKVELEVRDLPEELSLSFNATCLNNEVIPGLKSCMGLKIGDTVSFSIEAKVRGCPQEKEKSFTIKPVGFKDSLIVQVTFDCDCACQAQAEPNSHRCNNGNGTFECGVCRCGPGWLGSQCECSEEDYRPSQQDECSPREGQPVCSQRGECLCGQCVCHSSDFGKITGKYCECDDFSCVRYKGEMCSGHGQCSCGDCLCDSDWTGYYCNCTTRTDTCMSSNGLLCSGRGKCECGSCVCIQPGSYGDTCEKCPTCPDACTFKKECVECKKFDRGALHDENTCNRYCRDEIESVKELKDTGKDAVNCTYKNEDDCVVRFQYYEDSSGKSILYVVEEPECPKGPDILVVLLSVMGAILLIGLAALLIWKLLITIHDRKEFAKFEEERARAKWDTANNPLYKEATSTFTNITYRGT

IC50 (αvβ3 integrin [1]): 43 nM
IC50 (αIIbβ3): 15 nM
B1: Fibrinogen (ligand)
chain 1: ADSGEGDFLAEGGGVRGPRVVERHQSACKDSDWPFCSDEDWNYKCPSGCRMKGLIDEVNQDFTNRINKLKNSLFEYQKNNKDSHSLTTNIMEILRGDFSSANNRDNTYNRVSEDLRSRIEVLKRKVIEKVQHIQLLQKNVRAQLVDMKRLEVDIDIKIRSCRGSCSRALAREVDLKDYEDQQKQLEQVIAKDLLPSRDRQHLPLIKMKPVPDLVPGNFKSQLQKVPPEWKALTDMPQMRMELERPGGNEITRGGSTSYGTGSETESPRNPSSAGSWNSGSSGPGSTGNRNPGSSGTGGTATWKPGSSGPGSTGSWNSGSSGTGSTGNQNPGSPRPGSTGTWNPGSSERGSAGHWTSESSVSGSTGQWHSESGSFRPDSPGSGNARPNNPDWGTFEEVSGNVSPGTRREYHTEKLVTSKGDKELRTGKEKVTSGSTTTTRRSCSKTVTKTVIGPDGHKEVTKEVVTSEDGSDCPEAMDLGTLSGIGTLDGFRHRHPDEAAFFDTASTGKTFPGFFSPMLGEFVSETESRGSESGIFTNTKESSSHHPGIAEFPSRGKSSSYSKQFTSSTSYNRGDSTFESKSYKMADEAGSEADHEGTHSTKRGHAKSRPV
chain 2: QGVNDNEEGFFSARGHRPLDKKREEAPSLRPAPPPISGGGYRARPAKAAATQKKVERKAPDAGGCLHADPDLGVLCPTGCQLQEALLQQERPIRNSVDELNNNVEAVSQTSSSSFQYMYLLKDLWQKRQKQVKDNENVVNEYSSELEKHQLYIDETVNSNIPTNLRVLRSILENLRSKIQKLESDVSAQMEYCRTPCTVSCNIPVVSGKECEEIIRKGGETSEMYLIQPDSSVKPYRVYCDMNTENGGWTVIQNRQDGSVDFGRKWDPYKQGFGNVATNTDGKNYCGLPGEYWLGNDKISQLTRMGPTELLIEMEDWKGDKVKAHYGGFTVQNEANKYQISVNKYRGTAGNALMDGASQLMGENRTMTIHNGMFFSTYDRDNDGWLTSDPRKQCSKEDGGGWWYNRCHAANPNGRYYWGGQYTWDMAKHGTDDGVVWMNWKGSWYSMRKMSMKIRPFFPQQ
chain 3: YVATRDNCCILDERFGSYCPTTCGIADFLSTYQTKVDKDLQSLEDILHQVENKTSEVKQLIKAIQLTYNPDESSKPNMIDAATLKSRKMLEEIMKYEASILTHDSSIRYLQEIYNSNNQKIVNLKEKVAQLEAQCQEPCKDTVQIHDITGKDCQDIANKGAKQSGLYFIKPLKANQQFLVYCEIDGSGNGWTVFQKRLDGSVDFKKNWIQYKEGFGHLSPTGTTEFWLGNEKIHLISTQSAIPYALRVELEDWNGRTSTADYAMFKVGPEADKYRLTYAYFAGGDAGDAFDGFDFGDDPSDKFFTSHNGMQFSTWDNDNDKFEGNCAEQDGSGWWMNKCHAGHLNGVYYQGGTYSKASTPNGYDNGIIWATWKTRWYSMKKTTMKIIPFNRLTIGEGQQHHLGGAKQAGDV
notes: also called biotinylated fibrinogen; unmodified fibrinogen

IC50 (αvβ3 integrin [2]): 59 nM
B2: Vitronectin (ligand, human, UniProt P04004 20-478, looked up)
chain: DQESCKGRCTEGFNVDKKCQCDELCSYYQSCCTDYTAECKPQVTRGDVFTMPEDEYTVYDDGEEKNNATVHEQVGGPSLTSDLQAQSKGNPEQTPVLKPEEEAPAPEVGASKPEGIDSRPETLHPGRPQPPAEEELCSGKPFDAFTDLKNGSLFAFRGQYCYELDEKAVRPGYPKLIRDVWGIEGPIDAAFTRINCQGKTYLFKGSQYWRFEDGVLDPDYPRNISDGFDGIPDNVDAALALPAHSYSGRERVYFFKGKQYWEYQFQHQPSQEECEGSSLSAVFEHFAMMQRDSWEDIFELLFWGRTSAGTRQPQFISRDWHGVPGQVDAAMAGRIYISGMAPRPSLAKKQRFRHRNRKGYRSQRGHSRGRNQNSRRPSRATWLSLFSSEESNLGANNYDDYRMDWLVPATCEPIQSVFFFSGDKYYRVNLRTRRVDTVDPPYPRSIAQYWLGCPAPGHL
notes: also called biotinylated vitronectin; unmodified vitronectin
